Reference: paper PMC7329128

Experiments:
Assay in all cases: flow cytometry on cells
[1] = biological target: soluble HCMV glycoprotein trimer gH/gL/gO-sfGFP, strain TB40/E; conditions: 1/3 dilution of medium containing gH/gL/gO-sfGFP, read off a plot
[2] = biological target: membrane-anchored HCMV trimer (full-length gH, gL-FLAG, gO-8his), strain TB40/E, on Expi293F cells; conditions: fitted curve read at 100 nM soluble PDGFR-Fc (right end of the x axis); parent: est. 1.2; read off a plot
[3] = biological target: membrane-anchored HCMV trimer (full-length gH, gL-FLAG, gO-8his), strain Merlin, on Expi293F cells, Q6SW67;F5HCH8; conditions: read at 100 nM soluble PDGFR-Fc (highest concentration); parent: est. 0.98; read off a plot
[4] = + 100 nM PDGF competitor, parent: est. 0.33
[5] = w/o competitor, parent: est. 1.0

With “myc-tagged human PDGFRα (wild type) on Expi293F cells (from UniProt P16234-1) L137K” the ratio to parent [1, 4] was 0.85 and the ratio to parent [1, 5] was 0.82.

In the case of “myc-tagged human PDGFRα (wild type) on Expi293F cells (from UniProt P16234-1) L137Q”, the ratio to parent [1, 4] is reported as 0.71 and the ratio to parent [1, 5] is reported as 0.9.

“myc-tagged human PDGFRα (wild type) on Expi293F cells (from UniProt P16234-1) V242K” showed a ratio to parent [1, 4] of 0.94 and a ratio to parent [1, 5] of 0.9.

With “myc-tagged human PDGFRα (wild type) on Expi293F cells (from UniProt P16234-1) V242T” the ratio to parent [1, 4] was 0.84 and the ratio to parent [1, 5] was 0.83.

With “myc-tagged human PDGFRα (wild type) on Expi293F cells (from UniProt P16234-1) Y206S” the ratio to parent [1, 4] was 0.82 and the ratio to parent [1, 5] was 0.85.

In the case of “soluble PDGFRα-Fc (wild type, redesigned fusion to human IgG1 Fc) (from UniProt P16234-1) V242K”, the ratio to parent [2] is reported as 1.1 and the ratio to parent [3] is reported as 1.

In the case of “soluble PDGFRα-Fc (wild type, redesigned fusion to human IgG1 Fc) (from UniProt P16234-1) Y206S”, the ratio to parent [2] is reported as 0.76 and the ratio to parent [3] is reported as 0.45.
